Reference: article PMC12664034, “The E3 ubiquitin ligase SPRYD3-MYCBP2(PAM) regulates mitotic cell fate and ubiquitination of USP11 to control spindle assembly” (The Journal of Biological Chemistry, 2025)

Biological target: T1, GST-USP11 (UniProt P51784 1-963)
T1 construct: USP11; pGEX4T1-GST-USP11; made by subcloning; the bought USP11 plasmid is Addgene 22566; also called recombinant USP11; source: E. coli Rosetta (DE3), purified (Glutathione Sepharose 4B)
Assay: pull-down; MBP pull-down: 10 μg MBP-SPRYD3 (or equimolar MBP) mixed with 10 μg GST-tagged protein in NP-40 buffer, 4 °C 1 h; Amylose resin 2 h at 4 °C; five washes; Western blot
Conditions: both partners purified

T1 sequence (P51784 whole entry): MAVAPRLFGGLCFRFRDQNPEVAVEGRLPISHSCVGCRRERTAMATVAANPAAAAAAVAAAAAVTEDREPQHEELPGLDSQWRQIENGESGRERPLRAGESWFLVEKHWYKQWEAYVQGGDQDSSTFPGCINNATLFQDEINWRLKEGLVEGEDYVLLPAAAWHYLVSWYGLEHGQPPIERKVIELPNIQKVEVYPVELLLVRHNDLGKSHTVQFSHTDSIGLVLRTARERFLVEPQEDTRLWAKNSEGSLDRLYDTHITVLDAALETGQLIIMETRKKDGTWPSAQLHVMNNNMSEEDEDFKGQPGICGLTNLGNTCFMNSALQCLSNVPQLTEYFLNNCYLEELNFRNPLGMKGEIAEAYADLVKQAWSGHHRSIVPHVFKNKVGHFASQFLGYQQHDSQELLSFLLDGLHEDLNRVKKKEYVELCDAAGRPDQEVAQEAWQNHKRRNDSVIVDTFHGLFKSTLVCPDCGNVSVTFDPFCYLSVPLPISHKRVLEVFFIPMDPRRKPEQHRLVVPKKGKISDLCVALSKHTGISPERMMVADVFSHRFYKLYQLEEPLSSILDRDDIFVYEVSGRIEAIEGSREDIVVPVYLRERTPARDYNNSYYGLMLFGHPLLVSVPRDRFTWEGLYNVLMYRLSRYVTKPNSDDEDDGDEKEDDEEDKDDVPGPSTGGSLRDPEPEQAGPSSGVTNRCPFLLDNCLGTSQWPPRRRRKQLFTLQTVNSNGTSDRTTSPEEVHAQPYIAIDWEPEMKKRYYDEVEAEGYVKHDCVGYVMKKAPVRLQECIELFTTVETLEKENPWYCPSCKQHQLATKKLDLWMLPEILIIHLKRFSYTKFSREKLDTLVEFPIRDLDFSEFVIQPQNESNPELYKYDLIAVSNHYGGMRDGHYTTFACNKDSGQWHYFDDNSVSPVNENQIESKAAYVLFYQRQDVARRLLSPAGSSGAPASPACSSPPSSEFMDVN

B1: MBP-SPRYD3 (natural protein, UniProt Q8NCJ5 1-442, looked up)
chain: MRRTRRPRFVLMNKMDDLNLHYRFLNWRRRIREIREVRAFRYQERFKHILVDGDTLSYHGNSGEVGCYVASRPLTKDSNYFEVSIVDSGVRGTIAVGLVPQYYSLDHQPGWLPDSVAYHADDGKLYNGRAKGRQFGSKCNSGDRIGCGIEPVSFDVQTAQIFFTKNGKRVGSTIMPMSPDGLFPAVGMHSLGEEVRLHLNAELGREDDSVMMVDSYEDEWGRLHDVRVCGTLLEYLGKGKSIVDVGLAQARHPLSTRSHYFEVEIVDPGEKCYIALGLARKDYPKNRHPGWSRGSVAYHADDGKIFHGSGVGDPFGPRCYKGDIMGCGIMFPRDYILDSEGDSDDSCDTVILSPTARAVRNVRNVMYLHQEGEEEEEEEEEEEDGEEIEPEHEGRKVVVFFTRNGKIIGKKDAVVPSGGFFPTIGMLSCGEKVKVDLHPLSG
notes: SPRYD3; pMal-c2-MBP-SPRYD3; also called recombinant SPRYD3; source: E. coli Rosetta (DE3), purified (Amylose resin)
**Q.** Does B1 bind?
**A.** binds
